In patent publication US20240115742A1, “FLUORINATED FIBERS FOR MULTIMODAL 1H AND 19F MRI, ULTRASOUND, FLUORESCENCE DETECTION AND CONFORMATIONAL AND TEMPERATURE DETECTION BY 19F MRS” (New York University, priority 2022, published 2024):
Values joined by “and” are separate entries in the source; they are usually repeats but may differ in a detail not shown here. Equal entries are not always repeated.

Assays:
[1] = TEM of hydrogel nanofibers; assay type: physicochemical; conditions: gel after incubation at 4 °C
Method: Transmission Electron Microscopy. Transmission electron microscopy (TEM) images were taken with a FEI Talos L120C transmission electron microscope. The supramolecular assembly of Q2 and Q were monitored over the course of 60 and 144 hours, respectively (in correspondence with tube inversion and microrheology). TEM images were taken of the gel at times consistent with when microrheological measurements for Q2 for consistent fibril sizing. Samples were diluted to 50 μM and 3 μL was spotted on Formvar/carbon-coated copper grids followed by 5 μL wash with water, and 3 μL staining with 1% v/v uranyl acetate solution each with incubation times of 1 min. Following imaging, fibrils were sized in ImageJ software (Version 1.52q).
(§1) Transmission Electron Microscopy. Transmission electron microscopy (TEM) images were taken with a FEI Talos L120C transmission electron microscope. Samples were diluted to 50 μM and 3 μL was spotted on Formvar/carbon-coated copper grids followed by a L wash with water, and 3 μL staining with 1% v/v uranyl acetate solution each with incubation times of 1 min. Between steps, filter paper was used to gently wick the grids dry. Following imaging, minimum diameter nanofibers within the physically crosslinked hydrogel were sized in ImageJ software (Version 1.52q).

[2] = Tube inversion concentration-temperature phase diagram; assay type: physicochemical; conditions: for solubility limit: 50 mM Tris, 500 mM NaCl, pH 8.0; for UCST: at solubility limit, extent of gelation η 0.5
Method: Tube Inversion Test. Immediately after concentration to 2 mM, the protein was incubated at 4° C. over the course of two weeks after aliquoting 150 μL into a 2 mL Eppendorf tube. The samples were visually assessed for gelation by inverting the tubes at 12-hour time intervals thereafter, with gelled samples not flowing upon inversion.
Gelation. To study the relative gelation of Q2 as compared to the previously reported coiled-coil hydrogel, Q, protein was successfully expressed (FIG. 24), purified (FIG. 25), and concentrated to 2 mM (1% w/v) in Tris buffer (50 mM Tris, 500 mM NaCl) at pH 8.0. Purity of the protein was measured to be >99% by SDS-PAGE (FIG. 26) and concentration was measured by BCA assay. Immediately following concentration, the gelation process of Q2 was studied using the microrheology assay described previously following incubation at 4° C. Separately, 150 μL samples were aliquoted for tube inversion tests performed after 2 weeks of incubation for visual assessment of gelation over time at 4° C. (FIG. 19a-d) and at concentrations from 1 mM to 3.5 mM with temperatures 5° C. to 25° C. using 0.5 mM and 5° C. step sizes, respectively, to create a matrix-based phase diagram (FIG. 19e). Temperature and concentration ranges were selected based on preliminary tube-inversion testing at high and low ends of the ranges.
Thermoresponsiveness and material strength. UCST behavior of protein hydrogels was assessed by testing […] samples via tube inversion in 2 mL microtubes after incubation for two weeks at various temperatures and concentrations. Temperature conditions were modulated in the range of 5-40° C. The concentration range was modified depending on if precipitation was visually noticeable in the microtube at an earlier concentration, indicating a solubility limit to our phase diagram, as has been done previously. […] As done with Q2, the UCST of the hydrogels was determined using a bivariate linear relationship for the extent of gelation where tubes that passed gelation by tube inversion were assigned a value of 1 (shown in black in FIG. 52a and FIG. 64a-d) and tubes that failed gelation by tube inversion (shown in red in FIG. 52a and FIG. 64a-d) were assigned a value of 0. The heatmap in FIG. 52a and FIG. 64a-d was used to denote the range of extent of gelation where the equation was employed to solve for the UCST using the solubility limit and solving for an extent of gelation, η, value of 0.5. The UCSTs (FIG. 52b) for the hydrogels studied here were 13.0° C., 35.9° C., 33.6° C., 17.5° C., and 22.9° C. for Q3-7, respectively, as compared to 17.0° C. for Q and 22.0° C. for Q2 found previously. Bivariate regression allowed for solving the coefficients for the dependence of temperature and concentration on gelation.
Tube Inversion. Binary sol-gel behavior was assessed using tube inversion. Immediately after concentration to 2 mM, 150 μL of Q hydrogel variants were incubated in 2 mL microtubes at 4° C. for two weeks. Gelation was visually observed by inverting the microtube and inspecting the sample for flow from the top of tube.

[3] = Fluorescence recovery after photobleaching (FRAP); conditions: one-phase association fit
Method: Protein fibrils are capable of blue autofluorescence as a result of protein self-assembly. Fluorescent recovery after photobleaching (FRAP) is measured by photobleaching using a 405 nm laser and measuring the spot intensity over time. This behavior was previously confirmed in the Q protein in a recent characterization. Using the correlation between autofluorescence and fibrilization, the relative autofluorescence of the coiled-coil protein hydrogels was measured. […] To assess the relative laser response, hydrogels were subjected to FRAP imaging using two 100% intensity bleaches at 405 nm excitation followed by imaging at 2 second frame intervals (FIG. 53c).
Confocal Imaging and Fluorescence Recovery After Photobleaching (FRAP). FRAP experiments were performed with a Stellaris 8 Falcon laser scanning confocal microscope on an inverted DMi8 CS stand equipped with 63X NA 1.4 lens. Images were taken with a laser at 405 nm excitation. A pre-bleach image was taken followed by two bleach images using 100% laser intensity for 1.5 s. Following, 41 images were taken post-bleach at 2 s intervals. To measure recovery, FIJI (version 2.3.0) was used to automate background and recovery imaging following photobleaching. Independent background intensities were fit to a one-phase decay equation in GraphPad Prism. Background loss, as a result of photobleaching, from fit values were added to spot intensity values before being fit to a one-phase association equation in GraphPad Prism.

[4] = Parallel plate rheology; assay type: physicochemical; conditions: 10 Hz, 5% strain
Method: Rheology. Mechanical integrity of the Q2 hydrogel was assessed using a stress-controlled rheometer (Discovery Hybrid Rheometer 2, TA Instruments) equipped with a parallel plate geometry. After complete gelation of a 2 mM sample at 4° C., the sample was loaded onto the 8 mm diameter lower and upper plates with a 0.2 mm geometry gap. Strain and frequency settings were informed from previous Q hydrogel studies where the storage modulus (G′) and loss modulus (G″) were measured over the frequency range 0.1-10 Hz with a 5% oscillation strain.
Rheology. Q hydrogel variants were assessed for relative mechanical integrity with a stress-controlled rheometer (Discovery Hybrid Rheometer 2, TA Instruments) equipped with a parallel plate geometry. In parallel with microrheology measurements, 100 μL of each variant was incubated at 4° C. Upon gelation as assessed by microrheology, hydrogels were loaded onto an 8 mm diameter lower and upper plate with a 0.2 mm geometry gap. Storage modulus (G′) and loss modulus (G″) were measured from 0.1-10 Hz with 5% oscillation strain.

[5] = TEM of protein fibers; assay type: physicochemical; conditions: fibers
Method: Transmission Electron Microscopy. Transmission electron microscopy (TEM) images were taken with a FEI Talos L120C transmission electron microscope. Protein fiber samples were diluted to 50 μM and 3 μL was spotted on Formvar/carbon-coated copper grids followed by 5 μL wash with water, and 3 μL staining with 1% v/v uranyl acetate solution each with incubation times of 1 min at RT. Fibrils were sized in ImageJ software (Version 1.52q).
as §1, with “a 5 μL” for “a L”, “to” for “to gently”, “the grids.” for “the grids dry.”, “imaging, fibrils” for “imaging, minimum diameter nanofibers within the physically crosslinked hydrogel”

Substance	hydrogel fibril diameter (TEM) [1] [nm]	solubility limit [2] [µM]	UCST [2] [°C]	Halftime [3] [s]	K [3] [s⁻¹]	Tau [3] [s]	loss modulus G″ [4]	storage modulus G′ [4]	fiber diameter, largest population of sizes [5] [nm]	average protein fiber diameter (TEM) ([5]; 50 mM NaH2PO4 pH 4.0) [nm]
Q4: Q hydrogel variant from Rosetta Monte Carlo search, SEQ ID NO: 13 (MRGSHHHHHHGSIEGRVKEITFIKKTIEQIAEEMKEINKAIHDIRHALENISKK) [Protein Q4]	27.2±8.7	4000	35.9	5.7	0.1	8.2	15.0 ± 3.2 Pa	70±20 Pa and 69.9 ± 19.7 Pa		
Q6: Q hydrogel variant from trimodal Monte Carlo search, SEQ ID NO: 15 (MRGSHHHHHHGSIEGRVKEITFIKKQIEQIAEEMKEINKAIHDIRHALENISKK) [Protein Q6]	39.9±16.9	3000	17.5	5.1	0.1	7.3	13±6 Pa and 13.0 ± 5.7 Pa	253±123 Pa and 252.9 ± 122.7 Pa		
Q7: Q hydrogel variant from trimodal Monte Carlo search, SEQ ID NO: 16 (MRGSHHHHHHGSIEGRVKEMTFIKKTIEQQAEEMKEINKAIHDIRHALENISKK) [Protein Q7]	36.3±10.8	3000	22.9	9.7	0.1	13.9	21±8 Pa and 20.6 ± 7.9 Pa	298±62 Pa and 297.5 ± 61.7 Pa		
Q9: Monte-Carlo output sequence with increased ΔEEbcf from the Q domain; probably SEQ ID NO: 18 (MRGSHHHHHHGSIEGRVKEIKFLKNTAPQQLRELQNTNMALQDVRELLQQQSTL) [Protein Q9]									1280±330	760±170
